How the values were obtained:
[1] = target: His6-PA3027 (Pseudomonas aeruginosa PAO1161) (UniProt Q9HZH9); test: cross-linking; purified His6-PA3027 cross-linked with increasing concentration of glutaraldehyde; Western blot with anti-His antibodies
[2] = target: His6-PA3027 (Pseudomonas aeruginosa PAO1161) (UniProt Q9HZH9); test: SEC-MALS; 100 uL of 1 mg/mL His6-PA3027 on Superdex 200 Increase 10/300 in Buffer S (20 mM MES pH 6.5, 200 mM (NH4)2SO4, 200 mM NaCl), room temperature, 0.5 mL/min; monomer and dimer

A stoichiometry N [1] of 2 and a stoichiometry N [2] of 2 were found for “His6-PA3027 (from UniProt Q9HZH9 1-343) (natural protein)” in this work.

Source: publication PMC8151288
